Measured values reported in patent US20150018278.

Columns and labels:
[1] = test system: chicken transcription factor E2F4
[2] = test system: negative dominant form of chicken E2F4 (Thr261Ala/Thr263Ala)
[3] = test system: constitutively active form of chicken E2F4 (Thr261Glu/Thr263Glu)
Sequence of constitutively active form of chicken E2F4 (Thr261Glu/Thr263Glu) (chain, as listed by the source T261E T263E): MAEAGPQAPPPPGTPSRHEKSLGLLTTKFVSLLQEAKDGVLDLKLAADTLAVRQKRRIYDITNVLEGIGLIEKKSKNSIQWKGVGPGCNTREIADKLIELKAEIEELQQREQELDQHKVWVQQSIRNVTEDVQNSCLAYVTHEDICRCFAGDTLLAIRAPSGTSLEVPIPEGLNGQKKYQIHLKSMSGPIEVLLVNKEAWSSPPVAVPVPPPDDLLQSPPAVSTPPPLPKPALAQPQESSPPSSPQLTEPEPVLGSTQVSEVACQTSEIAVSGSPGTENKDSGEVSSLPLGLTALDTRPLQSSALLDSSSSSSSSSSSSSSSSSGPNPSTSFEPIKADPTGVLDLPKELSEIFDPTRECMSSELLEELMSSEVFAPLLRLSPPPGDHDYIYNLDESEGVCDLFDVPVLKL

Sequence of chicken transcription factor E2F4 (chain, as listed by the source): as the sequence (chain, as listed by the source T261E T263E) above, with E249T, E251T counted along it
Sequence of negative dominant form of chicken E2F4 (Thr261Ala/Thr263Ala) (chain, as listed by the source T261A T263A): as the sequence (chain, as listed by the source T261E T263E) above, with E249A, E251A counted along it

p38^MAPK
phosphorylation on threonine residues of E2F4 (Western blot with anti-phosphoThr antibodies in extracts immunoprecipitated with anti-E2F4 antibodies) [1]: The presence of NGF can be seen to involve an increase in phosphorylation on threonine residues, while the presence of p38^MAPK inhibitor inhibits such phosphorylation.
incorporation of BrdU [2]: The expression of the negative dominant form of E2F4 (E2F4-ND) prevents the effect of 100 ng/ml NGF on the incorporation of BrdU in retinal neurogenic cultures.
incorporation of BrdU [3]: The incorporation of BrdU increases significantly in cells transfected with the constitutively active form of E2F4 (E2F4-CA), an effect that can be observed even in the presence of selective p38^MAPK inhibitor SB203580 (used at 5 µM)
